Experimental data published in publication PMC3591269.

Target: MINI3 (WRKY10) (Arabidopsis) (UniProt Q9LG05)
Assay: competition
Details: 25 mM Hepes-KOH pH 7.2, 40 mM KCl, 1 mM DTT, 1 mM EDTA, 10% glycerol, 0.01 uM ZnCl2, 2 ug poly-dIdC, 3 ng probe, 1 ug protein in 20 ul; room temperature …

Sequence of MINI3 (WRKY10) (Arabidopsis) (Q9LG05 whole entry): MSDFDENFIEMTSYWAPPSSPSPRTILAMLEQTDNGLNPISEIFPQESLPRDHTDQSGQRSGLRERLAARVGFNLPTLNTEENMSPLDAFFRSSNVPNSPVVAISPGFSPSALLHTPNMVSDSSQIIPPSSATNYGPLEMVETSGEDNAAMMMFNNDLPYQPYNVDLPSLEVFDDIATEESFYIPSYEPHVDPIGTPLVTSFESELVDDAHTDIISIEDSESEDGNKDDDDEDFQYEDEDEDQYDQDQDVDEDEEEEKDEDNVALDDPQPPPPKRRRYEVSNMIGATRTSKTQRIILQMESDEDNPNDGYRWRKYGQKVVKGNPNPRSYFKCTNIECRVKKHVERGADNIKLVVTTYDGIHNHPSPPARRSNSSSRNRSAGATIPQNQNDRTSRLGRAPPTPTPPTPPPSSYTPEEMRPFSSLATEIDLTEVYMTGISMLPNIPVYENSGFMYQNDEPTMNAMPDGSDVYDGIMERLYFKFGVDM

Sequence | binding
GACATTACTGTCATCGTATATGAAACATTATTCTAATAATTGTTATAAAAATACCGGAGTTAAACTAGATTGATTATCACCGAGATTTTATATTTGTCAAGATATATAGATGGTCCATCGAAAGGATTGGTGCTTCCAAAACCTTCGATGTCACCTCCTGA (double strand) [W3-box fragment (MINI3 promoter)] | binds
GACATTACTGTCATCGTATATGAAACATTATTCTAATAATTGTTATAAAAATACCGGAGTTAAACTAGATTGATTATCACCGAGATTTTATATTTGTCTAGATATATAGATGGTCCATCGAAAGGATTGGTGCTTCCAAAACCTTCGATGTCACCTCCTGA (double strand) [mW3-box fragment] | binds
